Patent US20250346685A1 (published 2025)

Assays:
[1] = target: T1, human CD3εγ-Fc heterodimer (human); assay: SPR (Biacore T200), antigen amine-coupled on CM5 chip, antibody as analyte, 1:1 model
T1 construct: also called human CD3εγ recombinant protein; human CD3εγ protein
T1 chain 1: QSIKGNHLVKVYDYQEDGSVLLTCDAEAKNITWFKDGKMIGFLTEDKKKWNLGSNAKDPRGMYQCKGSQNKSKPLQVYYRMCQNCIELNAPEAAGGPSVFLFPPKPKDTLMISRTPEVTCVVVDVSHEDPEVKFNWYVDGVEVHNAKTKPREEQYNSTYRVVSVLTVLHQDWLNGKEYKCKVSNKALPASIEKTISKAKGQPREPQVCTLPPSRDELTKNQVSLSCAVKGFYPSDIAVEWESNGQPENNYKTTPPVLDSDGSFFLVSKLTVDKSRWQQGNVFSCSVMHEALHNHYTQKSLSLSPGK
T1 chain 2: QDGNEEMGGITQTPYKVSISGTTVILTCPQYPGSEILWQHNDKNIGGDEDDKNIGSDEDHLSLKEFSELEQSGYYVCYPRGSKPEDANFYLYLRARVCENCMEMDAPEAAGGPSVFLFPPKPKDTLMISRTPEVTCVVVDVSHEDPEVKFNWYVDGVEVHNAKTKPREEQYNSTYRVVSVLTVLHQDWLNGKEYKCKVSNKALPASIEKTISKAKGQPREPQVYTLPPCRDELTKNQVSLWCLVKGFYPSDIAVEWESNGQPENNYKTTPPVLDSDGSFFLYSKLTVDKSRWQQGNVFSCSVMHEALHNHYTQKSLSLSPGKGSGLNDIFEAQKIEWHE
Protocol: 10 μg/mL human or cynomolgus monkey BCMA or CD3εγ recombinant antigen was bound to a CM5 chip (GE healthcare) by amino conjugating, while the amount of antigen bound was controlled to approximately 200 RU. After baseline plateau, gradient diluted antibodies (7 gradients of 2-fold dilutions from 10 μg/mL) were flowed through the chip at a flow rate of 30 μL/min for a binding time of 350 seconds and a dissociation time of 600 seconds. Kinetic constants were fitted using Biacore T200 evaluation software with a 1:1 binding model.

[2] = target: T1, human CD3εγ-Fc heterodimer; assay: ELISA, coated human CD3εγ recombinant protein
Protocol: Human CD3εγ recombinant protein was coated overnight at 4° C. After blocking with 2% skim milk, different dilutions of CD3 antibody were added to each well and incubated for 1 hour. After the secondary antibody was developed by adding HPR-labeled goat anti-human IgG Fc and TMB solution, the reaction was stopped with concentrated sulfuric acid and the absorbance was read at 450 nm.

[3] = target: T2, human CD3 on T cells (Jurkat cells; human peripheral blood CD4+ and CD8+ T-cells) (human, UniProt P07766 23-207); assay: flow cytometry on Jurkat cells
T2 construct: whole, on cells; also called CD4T; CD4 + T
Protocol: Jurkat cells in logarithmic growth phase were blocked with 3% BSA for 30 min, added to 96-well U-plate at 5×10^4 cells per well, centrifuged to discard the supernatant, and added with 50 μL of gradient diluted antibody (antibody concentration:from 30 μg/mL, with 3-fold dilution for 5 gradients) per well, and incubated at 4° C. for 1 hour. After washing off the primary antibody, a 1:300 dilution of Alexa Fluro647 labeled goat anti-human IgG Fc (Jackson ImmunoResearch, 109-606-170) was added to the secondary antibody, incubated for 45 min at 4° C., and, after washing, resuspended in 50 μL of PBS per well for FACS (iQue, intellicyt) detection.

B1: BCMA × CD3 κλ005 (bispecific antibody)
light 1: DIVLTQSPASLAVSPGQRATITCRASKSVSTSGYSYMHWYQKKPGQPPKLLIYLASNLESGVPARFSGSGSGTDFTLTINPVEAEDTANYYCQHSRELPWTFGQGTKVEIKRTVAAPSVFIFPPSDEQLKSGTASVVCLLNNFYPREAKVQWKVDNALQSGNSQESVTEQDSKDSTYSLSSTLTLSKADYEKHKVYACEVTHQGLSSPVTKSFNRGEC
heavy 1: QVQLVQSGSELKKPGASVKVSCKASGYIFTNFGMNWVREAPGQGLEWMGWINTYTGEQIYADGFTGRFVFSLDTSVSTAYLQISSLKAEDTAVYFCARGEIYYGYDVGFVYWGQGTLVTVSSASTKGPSVFPLAPCSRSTSESTAALGCLVKDYFPEPVTVSWNSGALTSGVHTFPAVLQSSGLYSLSSVVTVPSSSLGTKTYTCNVDHKPSNTKVDKRVESKYGPPCPPCPAPEFEGGPSVFLFPPKPKDTLMISRTPEVTCVVVDVSQEDPEVQFNWYVDGVEVHNAKTKPREEQFNSTYRVVSVLTVLHQDWLNGKEYKCKVSNKGLASSIEKTISKAKGQPREPQVCTLPPSQEEMTKNQVSLSCAVKGFYPSDIAVEWESNGQPENNYKTTPPVLDSDGSFFLVSKLTVDKSRWQEGNVFSCSVMHEALHNHYTQKSLSLSLGK
light 2: QAVVTQEPSLTVSPGGTVTLTCRSSTGAVTTSNYANWVQEKPGQAPRGLIGGTNKRAPWTPARFSGSLLGGKAALTITGAQAEDEAEYYCVLWYSNLWVFGGGTKLTVLGQPKAAPSVTLFPPSSEELQANKATLVCLISDFYPGAVTVAWKADSSPVKAGVETTTPSKQSNNKYAASSYLSLTPEQWKSHRSYSCQVTHEGSTVEKTVAPTECS
heavy 2: EVQLVESGGGLVQPGGSLRLSCAASGFTFNTYAMNWVRKAPGKGLEWVGRIRSKYNNYATYYADSVKDRFTISRDDSKNSLYLQMNSLKTEDTAVYYCVRHGNFGNSYVSWFAYWGQGTLVTVSSASTKGPSVFPLAPCSRSTSESTAALGCLVKDYFPEPVTVSWNSGALTSGVHTFPAVLQSSGLYSLSSVVTVPSSSLGTKTYTCNVDHKPSNTKVDKRVESKYGPPCPPCPAPEFEGGPSVFLFPPKPKDTLMISRTPEVTCVVVDVSQEDPEVQFNWYVDGVEVHNAKTKPREEQFNSTYRVVSVLTVLHQDWLNGKEYKCKVSNKGLASSIEKTISKAKGQPREPQVYTLPPCQEEMTKNQVSLWCLVKGFYPSDIAVEWESNGQPENNYKTTPPVLDSDGSFFLYSKLTVDKSRWQEGNVFSCSVMHEALHNHYTQKSLSLSLGK
notes: also called BCMA×CD3 κλ bispecific antibody
Kd [1]: 28 nM

B2: BCMA × CD3 κλ006 (bispecific antibody)
light 1: DIVLTQSPASLAVSPGQRATITCRASKSVTTSGYSYIHWYQKKPGQPPKLLIYLASDLEAGVPARFSGSGSGTDFTLTINPVEAEDTANYYCQHSRELPWTFGQGTKVEIKRTVAAPSVFIFPPSDEQLKSGTASVVCLLNNFYPREAKVQWKVDNALQSGNSQESVTEQDSKDSTYSLSSTLTLSKADYEKHKVYACEVTHQGLSSPVTKSFNRGEC
heavy 1: QVQLVQSGSELKKPGASVKVSCKASGYIFTNFGMNWVREAPGQGLEWMGWINTYTGEQIYADGFTGRFVFSLDTSVSTAYLQISSLKAEDTAVYFCARGEIYYGYDVGFVYWGQGTLVTVSSASTKGPSVFPLAPCSRSTSESTAALGCLVKDYFPEPVTVSWNSGALTSGVHTFPAVLQSSGLYSLSSVVTVPSSSLGTKTYTCNVDHKPSNTKVDKRVESKYGPPCPPCPAPEFEGGPSVFLFPPKPKDTLMISRTPEVTCVVVDVSQEDPEVQFNWYVDGVEVHNAKTKPREEQFNSTYRVVSVLTVLHQDWLNGKEYKCKVSNKGLASSIEKTISKAKGQPREPQVCTLPPSQEEMTKNQVSLSCAVKGFYPSDIAVEWESNGQPENNYKTTPPVLDSDGSFFLVSKLTVDKSRWQEGNVFSCSVMHEALHNHYTQKSLSLSLGK
light 2: QAVVTQEPSLTVSPGGTVTLTCRSSTGAVTTSNYANWVQEKPGQAPRGLIGGTNKRAPWTPARFSGSLLGGKAALTITGAQAEDEAEYYCVLWYSNLWVFGGGTKLTVLGQPKAAPSVTLFPPSSEELQANKATLVCLISDFYPGAVTVAWKADSSPVKAGVETTTPSKQSNNKYAASSYLSLTPEQWKSHRSYSCQVTHEGSTVEKTVAPTECS
heavy 2: EVQLVESGGGLVQPGGSLRLSCAASGFTFNTYAMNWVRKAPGKGLEWVGRIRSKYNNYATYYADSVKDRFTISRDDSKNSLYLQMNSLKTEDTAVYYCVRHGNFGNSYVSWFAYWGQGTLVTVSSASTKGPSVFPLAPCSRSTSESTAALGCLVKDYFPEPVTVSWNSGALTSGVHTFPAVLQSSGLYSLSSVVTVPSSSLGTKTYTCNVDHKPSNTKVDKRVESKYGPPCPPCPAPEFEGGPSVFLFPPKPKDTLMISRTPEVTCVVVDVSQEDPEVQFNWYVDGVEVHNAKTKPREEQFNSTYRVVSVLTVLHQDWLNGKEYKCKVSNKGLASSIEKTISKAKGQPREPQVYTLPPCQEEMTKNQVSLWCLVKGFYPSDIAVEWESNGQPENNYKTTPPVLDSDGSFFLYSKLTVDKSRWQEGNVFSCSVMHEALHNHYTQKSLSLSLGK
notes: as for B1
Kd [1]: 27 nM

B3: aCD3-hVH1/VL5 (antibody, human IgG4, V domains shown)
VH: EVQLVESGGGLVQPGGSLRLSCAASGFTFNTYAMNWVRQAPGKGLEWVSRIRSKYNNYATYYADSVKDRFTISRDDSKNTLYLQMNSLRAEDTAVYYCVRHGNFGNSYVSWFAYWGQGTLVTVSS
VL: QAVVTQEPSLTVSPGGTVTLTCRSSTGAVTTSNYANWVQEKPGQAPRGLIGGTNKRAPWTPARFSGSLLGGKAALTITGAQAEDEAEYYCVLWYSNLWVFGGGTKLTVL
notes: also called humanized anti-CD3 antibody hVH1/VL5
affinity (ELISA) [2]: 0.6 nM
affinity (FACS) [3]: 10 nM

B4: aCD3-hVH9/VL3 (antibody, human IgG4, V domains shown)
VH: EVQLVESGGGLVQPGGSLRLSCAASGFTFNTYAMNWVRKAPGKGLEWVGRIRSKYNNYATYYADSVKDRFTISRDDSKNSLYLQMNSLKTEDTAVYYCVRHGNFGNSYVSWFAYWGQGTLVTVSS
VL: EAVVTQEPSLTVSPGGTVTLTCESSDGAVTTSNYANWVQEKPGQAPRGLIGGTNKEAPWTPARFSGSLLGGKAALTLSGAQPEDEAEYYCALWYSNLWVFGGGTKLTVL
notes: also called humanized anti-CD3 antibody hVH9/VL3
affinity (ELISA) [2]: 0.7 nM

B5: aCD3-hVH8/VL1 (antibody, human IgG4, V domains shown)
VH: EVQLVESGGGLVQPGGSLRLSCAASGFTFNTYAMNWVRKAPGKGLEWVGRIRSKYNNYATYYADSVKDRFTISRDDSKNSLYLQMNSLKTEDTAVYYCARHGNFGNSYVSWFAYWGQGTLVTVSS
VL: QAVVTQEPSLTVSPGGTVTLTCRSSTGAVTTSNYANWVQQKPGQAPRGLIGGTNKRAPWTPARFSGSLLGGKAALTLSGAQPEDEAEYYCALWYSNLWVFGGGTKLTVL
notes: also called humanized anti-CD3 antibody hVH8/VL1
affinity (ELISA) [2]: 0.65 nM
affinity (FACS) [3]: 15 nM

B6: aCD3-hVH9/VL1 (antibody, human IgG4, V domains shown)
VH: EVQLVESGGGLVQPGGSLRLSCAASGFTFNTYAMNWVRKAPGKGLEWVGRIRSKYNNYATYYADSVKDRFTISRDDSKNSLYLQMNSLKTEDTAVYYCVRHGNFGNSYVSWFAYWGQGTLVTVSS
VL: QAVVTQEPSLTVSPGGTVTLTCRSSTGAVTTSNYANWVQQKPGQAPRGLIGGTNKRAPWTPARFSGSLLGGKAALTLSGAQPEDEAEYYCALWYSNLWVFGGGTKLTVL
notes: also called humanized anti-CD3 antibody hVH9/VL1
affinity (ELISA) [2]: 0.49 nM
affinity (FACS) [3]: 7 nM

B7: aCD3-hVH8/VL5 (antibody, human IgG4, V domains shown)
VH: EVQLVESGGGLVQPGGSLRLSCAASGFTFNTYAMNWVRKAPGKGLEWVGRIRSKYNNYATYYADSVKDRFTISRDDSKNSLYLQMNSLKTEDTAVYYCARHGNFGNSYVSWFAYWGQGTLVTVSS
VL: QAVVTQEPSLTVSPGGTVTLTCRSSTGAVTTSNYANWVQEKPGQAPRGLIGGTNKRAPWTPARFSGSLLGGKAALTITGAQAEDEAEYYCVLWYSNLWVFGGGTKLTVL
notes: also called humanized anti-CD3 antibody hVH8/VL5
affinity (ELISA) [2]: 0.74 nM
